In the supplement of paper PMC11246515:
± gives the standard deviation of the averaged measurements.

Assay: total protein half-life in vivo (active degradation + dilution); higher = more stable protein
[1] = E. coli NCM3722 delta-clpP delta-lon delta-hslV, growth: N-lim chemostat, doubling time 6 h
[2] = E. coli NCM3722 delta-clpP, growth: N-lim chemostat, doubling time 6 h
[3] = E. coli NCM3722 delta-hslV, growth: N-lim chemostat, doubling time 6 h
[4] = E. coli NCM3722 delta-lon, growth: N-lim chemostat, doubling time 6 h
[5] = E. coli NCM3722 delta-smpB, growth: N-lim chemostat, doubling time 6 h
[6] = wild type E. coli NCM3722, growth: C-lim chemostat, doubling time 3 h
[7] = wild type E. coli NCM3722, growth: C-lim chemostat, doubling time 6 h
[8] = wild type E. coli NCM3722, growth: C-lim chemostat, doubling time 12 h
[9] = wild type E. coli NCM3722, growth: N-lim chemostat, doubling time 6 h
[10] = wild type E. coli NCM3722, growth: P-lim chemostat, doubling time 6 h
[11] = wild type E. coli NCM3722, growth: P-lim chemostat, doubling time 12 h
[12] = wild type E. coli NCM3722, growth: N-lim chemostat, doubling time 12 h

| Sequence | total protein half-life in vivo [1] [h] | total protein half-life in vivo [2] [h] | total protein half-life in vivo [3] [h] | total protein half-life in vivo [4] [h] | total protein half-life in vivo [5] [h] | total protein half-life in vivo [6] [h] | total protein half-life in vivo [7] [h] | total protein half-life in vivo [8] [h] | total protein half-life in vivo [9] [h] | total protein half-life in vivo [10] [h] | total protein half-life in vivo [11] [h] | total protein half-life in vivo [12] [h] |
| --- | --- | --- | --- | --- | --- | --- | --- | --- | --- | --- | --- | --- |
| MQNNEQTEYKTVRGLTRGLMLLNMLNKLDGGASVGLLAELSGLHRTTVRRLLETLQEEGYVRRSPSDDSFRLTIKVRQLSEGFRDEQWISALAAPLLGDLLREVVWPTDVSTLDVDAMVVRETTHRFSRLSFHRAMVGRRLPLLKTASGLTWLAFCPEQDRKELIEMLASRPGDDYQLAREPLKLEAILARARKEGYGQNYRGWDQEEKIASIAVPLRSEQRVIGCLNLVYMASAMTIEQAAEKHLPALQRVAKQIEEGVESQAILVAGRRSGMHLR | 6.32 ± 0.84 | 2.12 | 1.85 ± 0.042 | 2.59 | 1.26 | 1.55 ± 0.24 | 2.35 ± 0.052 | 3.26 ± 1.1 | 1.85 ± 0.27 | 1.72 ± 0.43 | 2.94 ± 0.64 | – |
| MQPFGVLDRYIGKTIFTTIMMTLFMLVSLSGIIKFVDQLKKAGQGSYDALGAGMYTLLSVPKDVQIFFPMAALLGALLGLGMLAQRSELVVMQASGFTRMQVALSVMKTAIPLVLLTMAIGEWVAPQGEQMARNYRAQAMYGGSLLSTQQGLWAKDGNNFVYIERVKGDEELGGISIYAFNENRRLQSVRYAATAKFDPEHKVWRLSQVDESDLTNPKQITGSQTVSGTWKTNLTPDKLGVVALDPDALSISGLHNYVKYLKSSGQDAGRYQLNMWSKIFQPLSVAVMMLMALSFIFGPLRSVPMGVRVVTGISFGFVFYVLDQIFGPLTLVYGIPPIIGALLPSASFFLISLWLLMRKS [P0ADC6] | – | 6.53 ± 0.4 | 6.81 ± 0.8 | 6.01 ± 0.47 | 6.08 ± 0.48 | – | 6.69 ± 0.65 | 12.3 ± 0.43 | 6.06 ± 0.099 | 6.22 ± 0.49 | 13.5 ± 0.88 | 12.9 ± 0.5 |
| MQPNDITFFQRFQDDILAGRKTITIRDESESHFKTGDVLRVGRFEDDGYFCTIEVTATSTVTLDTLTEKHAEQENMTLTELKKVIADIYPGQTQFYVIEFKCL | – | 5.77 ± 0.22 | 5.77 ± 0.14 | 6.02 ± 0.22 | 6.22 ± 0.28 | 3.49 ± 0.34 | 5.2 ± 1.4 | 10.4 ± 3.3 | 6.12 ± 0.24 | 6.47 ± 0.56 | 14 ± 0.55 | 11.3 ± 0.97 |
| MQQIARSVALAFNNLPRPHRVMLGSLTVLTLAVAVWRPYVYHRDATPIVKTIELEQNEIRSLLPEASEPIDQAAQEDEAIPQDELDDKIAGEAGVHEYVVSTGDTLSSILNQYGIDMGDITQLAAADKELRNLKIGQQLSWTLTADGELQRLTWEVSRRETRTYDRTAANGFKMTSEMQQGEWVNNLLKGTVGGSFVASARNAGLTSAEVSAVIKAMQWQMDFRKLKKGDEFAVLMSREMLDGKREQSQLLGVRLRSEGKDYYAIRAEDGKFYDRNGTGLAKGFLRFPTAKQFRISSNFNPRRTNPVTGRVAPHRGVDFAMPQGTPVLSVGDGEVVVAKRSGAAGYYVAIRHGRSYTTRYMHLRKILVKPGQKVKRGDRIALSGNTGRSTGPHLHYEVWINQQAVNPLTAKLPRTEGLTGSDRREFLAQAKEIVPQLRFD [P0AFS9] | 3.29 | – | 6.32 | – | – | 0.826 ± 0.34 | 3.3 ± 0.13 | 6.19 | 5.39 | – | – | – |
| MQQKMIQFSGDVSLPAVGQGTWYMGEDASQRKTEVAALRAGIELGLTLIDTAEMYADGGAEKVVGEALTGLREKVFLVSKVYPWNAGGQKAINACEASLRRLNTDYLDLYLLHWSGSFAFEETVAAMEKLIAQGKIRRWGVSNLDYADMQELWQLPGGNQCATNQVLYHLGSRGIEYDLLPWCQQQQMPVMAYSPLAQAGRLRNGLLKNAVVNEIAHAHNISAAQVLLAWVISHQGVMAIPKAATIAHVQQNAAVLEVELSSAELAMLDKAYPAPKGKTALDMV | > 8 | – | – | – | – | 2.9 ± 0.38 | 5.61 ± 0.92 | 8.61 ± 1.4 | – | 5.03 ± 0.38 | 9.97 ± 0.73 | – |
| MQQLQNIIETAFERRAEITPANADTVTREAVNQVIALLDSGALRVAEKIDGQWVTHQWLKKAVLLSFRINDNQVIEGAESRYFDKVPMKFADYDEARFQKEGFRVVPPAAVRQGAFIARNTVLMPSYVNIGAYVDEGTMVDTWATVGSCAQIGKNVHLSGGVGIGGVLEPLQANPTIIEDNCFIGARSEVVEGVIVEEGSVISMGVYIGQSTRIYDRETGEIHYGRVPAGSVVVSGNLPSKDGKYSLYCAVIVKKVDAKTRGKVGINELLRTID [P0A9D8] | 4.878 ± 0.043 | 4.24 ± 0.13 | 4.13 ± 0.23 | 4.507 ± 0.042 | 4.12 ± 0.12 | 2.97 ± 0.074 | 5.34 ± 0.39 | 9.591 ± 0.062 | 4.19 ± 0.11 | 5.91 ± 0.12 | 11 ± 0.57 | 6.89 ± 0.2 |
| MQRKTLLSACIALALSGQGWAADITEVETTTGEKKNTNVTCPADPGKLSPEELKRLPSECSPLVEQNLMPWLSTGAAALITALAVVELNDDDDHHHRNNSPLPPTPPDDESDDTPVPPTPGGDEIIPDDPDDTPTPPKPVSFNNDVILDKTEKTLTIRDSVFTYTENADGTISLQDSNGRKATINLWQIDEANNTVALEGVSADGATKWQYNHNGELVITGDNATVNNNGKTTVDGKDSTGTEINGNNGKVIQDGDLDVSGGGHGIDITGDSATVDNKGTMTVTDPESMGIQIDGDKAIVNNEGESTITNGGTGTQINGDDATANNNGKTTVDGKDSTGTEINGNNGKVIQDGDLDVSGGGHGIDITGDSATVDNKGTMTVTDPESIGIQVDGDQAVVNNEGESAITNGGTGTQINGDDATANNNGKTTVDGKDSTGTEIAGNNGKVIQDGDLDVSGGGHGIDITGDSATVDNKGTMTVTDPESIGIQIDGDQAIVNNEGESTITNGGTGTQINGNDATANNSGKTTVDGKDSTGTKIAGNIGIVNLDGSLTVTGGAHGVENIGDNGTVNNKGDIVVSDTGSIGVLINGEGATVSNTGDVNVSNEATGFSITTNSGKVSLAGSMQVGDFSTGVDLNGNNNSVTLAAKDLKVVGQKATGINVSGDANTVNITGNVLVDKDKTADNAAEYFFDPSVGINVYGSDNNVTLDGKLTVVSDSEVTSRQSNLFDGSAEKTSGLVVIGDGNTVNMNGGLELIGEKNALADGSQVTSLRTGYSYTSVIVVSGESSVYLNGDTTISGEFPLGFAGVIRVQDKALLEIGSGATLTMQDIDSFEHHGTRTLDLPLYFQTSVIT | – | – | – | – | – | – | – | – | – | – | 11 ± 1.1 | – |
| MQRRDFLKYSVALGVASALPLWSRAVFAAERPTLPIPDLLTTDARNRIQLTIGAGQSTFGGKTATTWGYNGNLLGPAVKLQRGKAVTVDIYNQLTEETTLHWHGLEVPGEVDGGPQGIIPPGGKRSVTLNVDQPAATCWFHPHQHGKTGRQVAMGLAGLVVIEDDEILKLMLPKQWGIDDVPVIVQDKKFSADGQIDYQLDVMTAAVGWFGDTLLTNGAIYPQHAAPRGWLRLRLLNGCNARSLNFATSDNRPLYVIASDGGLLPEPVKVSELPVLMGERFEVLVEVNDNKPFDLVTLPVSQMGMAIAPFDKPHPVMRIQPIAISASGALPDTLSSLPALPSLEGLTVRKLQLSMDPMLDMMGMQMLMEKYGDQAMAGMDHSQMMGHMGHGNMNHMNHGGKFDFHHANKINGQAFDMNKPMFAAAKGQYERWVISGVGDMMLHPFHIHGTQFRILSENGKPPAAHRAGWKDTVKVEGNVSEVLVKFNHDAPKEHAYMAHCHLLEHEDTGMMLGFTV | – | 5.63 ± 0.14 | 6.68 ± 0.32 | 6.57 ± 0.91 | 5.62 ± 0.1 | 2.84 ± 0.38 | 5.977 ± 0.041 | 11.2 ± 1.3 | 5.944 ± 0.022 | 5.657 ± 0.043 | 14.4 ± 1.6 | 13.8 ± 1 |
| MQSDKVLNLPAGYFGIVLGTIGMGFAWRYASQVWQVSHWLGDGLVILAMIIWGLLTSAFIARLIRFPHSVLAEVRHPVLSSFVSLFPATTMLVAIGFVPWFRPLAVCLFSFGVVVQLAYAAWQTAGLWRGSHPEEATTPGLYLPTVANNFISAMACGALGYTDAGLVFLGAGVFSWLSLEPVILQRLRSSGELPTALRTSLGIQLAPALVACSAWLSVNGGEGDTLAKMLFGYGLLQLLFMLRLMPWYLSQPFNASFWSFSFGVSALATTGLHLGSGSDNGFFHTLAVPLFIFTNFIIAILLIRTFALLMQGKLLVRTERAVLMKAEDKE | – | – | – | – | 6.2 | – | > 8 | – | – | 6.53 | – | – |
